Data set [1] concerns the target T1, N-terminal fragment of MMLV reverse transcriptase (fingers and palm domains) (Moloney murine leukemia virus, UniProt P03355 683-937). As to the kind of experiment: X-ray crystallography (1.72 A); host-guest complex; undamaged DNA; Crystallization: protein 2 mM in 50 mM MES pH 6.0, 0.3 M NaCl, 1 mM DTT; DNA 2.5 mM duplex in 10 mM HEPES pH 7.0, 10 mM MgCl2; crystallization buffer and temperature not given in the material. The conditions noted are these: protein: recombinant; tags: 6xHis tag removed with thrombin; chain copies: 2; blunt; self-complementary, 2 copies of one strand.

The target of data set [2] is T1, N-terminal fragment of MMLV reverse …. As to the kind of experiment: X-ray crystallography (2.14 A); host-guest complex; SP lesions in central 10 bp, free of protein contacts; Crystallization: protein 2 mM in 50 mM MES pH 6.0, 0.3 M NaCl, 1 mM DTT; DNA 2.5 mM duplex in 10 mM HEPES pH 7.0, 10 mM MgCl2; crystallization buffer and temperature not given in the material. The note with it: protein: recombinant; tags: 6xHis tag removed with thrombin; chain copies: 2; blunt; self-complementary, 2 copies of one strand.

T1 sequence (P03355 683-937): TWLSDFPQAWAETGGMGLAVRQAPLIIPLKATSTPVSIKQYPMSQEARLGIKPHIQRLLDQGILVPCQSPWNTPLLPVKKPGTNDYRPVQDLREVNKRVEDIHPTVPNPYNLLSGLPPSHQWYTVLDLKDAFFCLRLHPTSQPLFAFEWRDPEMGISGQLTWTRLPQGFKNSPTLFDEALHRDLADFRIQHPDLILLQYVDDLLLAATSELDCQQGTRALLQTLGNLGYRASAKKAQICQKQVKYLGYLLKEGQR

B1: non-SP DNA 16-mer (dsDNA)
DNA 1: ATCCGTTATAACGGAT
DNA 2: ATCCGTTATAACGGAT
Consider B1, for which, in data set [1], the binding result is on record as “binds”.

B2: SP DNA 16-mer (dsDNA)
DNA 1: ATCCGTTATAACGGAT
DNA 2: ATCCGTTATAACGGAT
modifications: spore photoproduct (5-thyminyl-5,6-dihydrothymine) linking T6 and T7 in each strand
Take B2: the binding result in data set [2] is “binds”.

(Values after publication PMC3949526, “The structure of an authentic spore photoproduct lesion in DNA suggests a basis for recognition”.)
